B1: CD36: S468A (protein)
parent chain: MGCDRNCGLIAGAVIGAVLAVFGGILMPVGDLLIQKTIKKQVVLEEGTIAFKNWVKTGTEVYRQFWIFDVQNPQEVMMNSSNIQVKQRGPYTYRVRFLAKENVTQDAEDNTVSFLQPNGAIFEPSLSVGTEADNFTVLNLAVAAASHIYQNQFVQMILNSLINKSKSSMFQVRTLRELLWGYRDPFLSLVPYPVTTTVGLFYPYNNTADGVYKVFNGKDNISKVAIIDTYKGKRNLSYWESHCDMINGTDAASFPPFVEKSQVLQFFSSDICRSIYAVFESDVNLKGIPVYRFVLPSKAFASPVENPDNYCFCTEKIISKNCTSYGVLDISKCKEGRPVYISLPHFLYASPDVSEPIDGLNPNEEEHRTYLDIEPITGFTLQFAKRLQVNLLVKPSEKIQVLKNLKRNYIVPILWLNETGTIGDEKANMFRSQVTGKINLLGLIEMILLSVGVVMFVAFMISYCACRSKTIK
B2: CD36: T470A (protein)
parent chain: B1 parent chain
B3: CD36: S468A/T470A (protein)
parent chain: B1 parent chain

Assay: Nile red staining after PA, SGC 7901
Conditions: glycan lost; control: wild-type CD36

other: transport activity, decreases:
B1
B2
B3

Assay: fluorescent FA uptake kit, time course, SGC 7901
Conditions: glycan lost; control: wild-type CD36

other: transport activity, decreases:
B1
B2
B3
